Laboratory results published in patent publication US20230140293A1.

How the values were obtained:
Experiment in all cases: cell-based or functional assay
[1] = biological target: CH0505.w4.3 Env, Env-pseudotyped virus produced in 293T cells (HIV-1)
[2] = biological target: CH0505TF Env, Env-pseudotyped virus produced in 293S GnTI- cells (Man5-enriched) (HIV-1)
[3] = biological target: CH0505TF Env, Env-pseudotyped virus produced in 293T cells (HIV-1)
[4] = biological target: CH0505TF.G458Y Env, Env-pseudotyped virus produced in 293S GnTI- cells (Man5-enriched) (HIV-1)
[5] = biological target: CH0505TF.G458Y Env, Env-pseudotyped virus produced in 293T cells (HIV-1)
[6] = biological target: CH0505TF.gly3.197 Env, Env-pseudotyped virus produced in 293S GnTI- cells (Man5-enriched) (HIV-1)
[7] = biological target: CH0505TF.gly3.197 Env, Env-pseudotyped virus produced in 293T cells (HIV-1)
[8] = biological target: CH0505TF.gly3.276 Env, Env-pseudotyped virus produced in 293S GnTI- cells (Man5-enriched) (HIV-1)
[9] = biological target: CH0505TF.gly3.276 Env, Env-pseudotyped virus produced in 293T cells (HIV-1)
[10] = biological target: CH0505TF.gly3.461 Env, Env-pseudotyped virus produced in 293S GnTI- cells (Man5-enriched) (HIV-1)
[11] = biological target: CH0505TF.gly3.461 Env, Env-pseudotyped virus produced in 293T cells (HIV-1)
[12] = biological target: CH0505TF.gly4 Env, Env-pseudotyped virus produced in 293S GnTI- cells (Man5-enriched) (HIV-1)
[13] = biological target: CH0505TF.gly4 Env, Env-pseudotyped virus produced in 293T cells (HIV-1)
[14] = biological target: HIV-1 426c.DM (N460D/N463D) Env on Env-pseudotyped virus produced in 293T cells (HIV-1)
[15] = biological target: HIV-1 426c.DM (N460D/N463D) Env on Env-pseudotyped virus produced in 293s/GnTI-/- cells (Man5-enrichment) (HIV-1)
[16] = biological target: HIV-1 426c.SM (N276D) Env on Env-pseudotyped virus produced in 293T cells (HIV-1)
[17] = biological target: HIV-1 426c.SM (N276D) Env on Env-pseudotyped virus produced in 293s/GnTI-/- cells (Man5-enrichment) (HIV-1)
[18] = biological target: HIV-1 426c.TM (N276D/N460D/N463D) Env on Env-pseudotyped virus produced in 293T cells (HIV-1)
[19] = biological target: HIV-1 426c.TM (N276D/N460D/N463D) Env on Env-pseudotyped virus produced in 293s/GnTI-/- cells (Man5-enrichment) (HIV-1)
[20] = biological target: HIV-1 Env 426c, Env-pseudotyped virus produced in 293S GnTI- cells (Man5-enriched) (HIV-1 clade C strain 426c)
[21] = biological target: HIV-1 Env 426c, Env-pseudotyped virus produced in 293T cells (HIV-1 clade C strain 426c)
[22] = biological target: HIV-1 Env 426c.DM (N460D.N463D), Env-pseudotyped virus produced in 293S GnTI- cells (Man5-enriched) (HIV-1 clade C strain 426c)
[23] = biological target: HIV-1 Env 426c.DM (N460D.N463D), Env-pseudotyped virus produced in 293T cells (HIV-1 clade C strain 426c)
[24] = biological target: HIV-1 Env 426c.SM (N276D), Env-pseudotyped virus produced in 293S GnTI- cells (Man5-enriched) (HIV-1 clade C strain 426c)
[25] = biological target: HIV-1 Env 426c.SM (N276D), Env-pseudotyped virus produced in 293T cells (HIV-1 clade C strain 426c)
[26] = biological target: HIV-1 Env 426c.TM (N276D.N460D.N463D), Env-pseudotyped virus produced in 293S GnTI- cells (Man5-enriched) (HIV-1 clade C strain 426c)
[27] = biological target: HIV-1 Env 426c.TM (N276D.N460D.N463D), Env-pseudotyped virus produced in 293T cells (HIV-1 clade C strain 426c)
[28] = biological target: HIV-1 Env 426c.TM4 (S278R.G471S.N460D.N463D), Env-pseudotyped virus produced in 293S GnTI- cells (Man5-enriched) (HIV-1 clade C strain 426c)
[29] = biological target: HIV-1 Env 426c.TM4 (S278R.G471S.N460D.N463D), Env-pseudotyped virus produced in 293T cells (HIV-1 clade C strain 426c)
[30] = biological target: HIV-1 clade C strain 426c Env on Env-pseudotyped virus produced in 293T cells (HIV-1)
[31] = biological target: HIV-1 clade C strain 426c Env on Env-pseudotyped virus produced in 293s/GnTI-/- cells (Man5-enrichment) (HIV-1)

Row | Substance | IC50 (µg/ml) in TZM-bl [2] [µg/mL] | IC50 (µg/ml) in TZM-bl [3] [µg/mL] | IC50 (µg/ml) in TZM-bl [4] [µg/mL] | IC50 (µg/ml) in TZM-bl [5] [µg/mL] | IC50 (µg/ml) in TZM-bl [6] [µg/mL] | IC50 (µg/ml) in TZM-bl [7] [µg/mL] | IC50 (µg/ml) in TZM-bl [8] [µg/mL] | IC50 (µg/ml) in TZM-bl [9] [µg/mL] | IC50 (µg/ml) in TZM-bl [10] [µg/mL] | IC50 (µg/ml) in TZM-bl [11] [µg/mL] | IC50 (µg/ml) in TZM-bl [12] [µg/mL] | IC50 (µg/ml) in TZM-bl [13] [µg/mL] | IC50 (µg/ml) in TZM-bl [20] [µg/mL] | IC50 (µg/ml) in TZM-bl [21] [µg/mL] | IC50 (µg/ml) in TZM-bl [22] [µg/mL] | IC50 (µg/ml) in TZM-bl [23] [µg/mL] | IC50 (µg/ml) in TZM-bl [24] [µg/mL] | IC50 (µg/ml) in TZM-bl [26] [µg/mL] | IC50 (µg/ml) in TZM-bl [28] [µg/mL] | IC50 (µg/ml) in TZM-bl [29] [µg/mL] | also measured
1 | 2F5 (antibody) | > 25 | > 25 | > 25 | > 25 | > 25 | > 25 | > 25 | > 25 | > 25 | > 25 | > 25 | > 25 | > 25 | > 25 | > 25 | > 25 | > 25 | > 25 | > 25 | > 25 | IC50 (µg/ml) in TZM-bl [1]: > 25 µg/mL; ID50/IC50 in TZM-bl [14]: > 25 µg/mL; ID50/IC50 in TZM-bl [15]: > 25 µg/mL; ID50/IC50 in TZM-bl [16]: > 25 µg/mL; ID50/IC50 in TZM-bl [17]: > 25 µg/mL; ID50/IC50 in TZM-bl [18]: > 25 µg/mL; ID50/IC50 in TZM-bl [19]: > 25 µg/mL; IC50 (µg/ml) in TZM-bl [25]: > 25 µg/mL; IC50 (µg/ml) in TZM-bl [27]: > 25 µg/mL; ID50/IC50 in TZM-bl [30]: > 25 µg/mL; ID50/IC50 in TZM-bl [31]: > 25 µg/mL
2 | 2G12 (antibody) | > 25 | > 25 | > 25 | > 25 | > 25 | > 25 | > 25 | > 25 | > 25 | > 25 | > 25 | > 25 | > 25 | > 25 | > 25 | > 25 | > 25 | > 25 | > 25 | > 25 | IC50 (µg/ml) in TZM-bl [1]: > 50 µg/mL; ID50/IC50 in TZM-bl [14]: > 25 µg/mL; ID50/IC50 in TZM-bl [15]: > 25 µg/mL; ID50/IC50 in TZM-bl [16]: > 25 µg/mL; ID50/IC50 in TZM-bl [17]: > 25 µg/mL; ID50/IC50 in TZM-bl [18]: > 25 µg/mL; ID50/IC50 in TZM-bl [19]: > 25 µg/mL; IC50 (µg/ml) in TZM-bl [25]: > 25 µg/mL; IC50 (µg/ml) in TZM-bl [27]: > 25 µg/mL; ID50/IC50 in TZM-bl [30]: > 25 µg/mL; ID50/IC50 in TZM-bl [31]: > 25 µg/mL
3 | 10E8 (antibody) | 2.2 | 4.4 | 2.1 | 1.1 | 4 | 3.4 | 2.3 | 3.3 | 2.5 | 3.3 | 2.2 | 2.7 | 0.35 | 0.8 | 0.45 | 1.11 | 0.28 | 0.51 | 0.19 | 0.53 | IC50 (µg/ml) in TZM-bl [1]: 1.1 µg/mL; IC50 (µg/ml) in TZM-bl [25]: 1.26 µg/mL; IC50 (µg/ml) in TZM-bl [27]: 1.52 µg/mL
4 | PGDM1400 (antibody) | 0.007 | 0.006 | 0.002 | 0.006 | 0.003 | 0.01 | 0.004 | 0.02 | 0.008 | 0.04 | 0.007 | 0.016 | > 5 | > 25 | > 5 | > 25 | > 5 | > 5 | > 5 | > 5 | ID50/IC50 in TZM-bl [14]: > 25 µg/mL; ID50/IC50 in TZM-bl [15]: > 5 µg/mL; ID50/IC50 in TZM-bl [16]: > 25 µg/mL; ID50/IC50 in TZM-bl [17]: > 5 µg/mL; ID50/IC50 in TZM-bl [18]: > 25 µg/mL; ID50/IC50 in TZM-bl [19]: > 5 µg/mL; IC50 (µg/ml) in TZM-bl [25]: > 25 µg/mL; IC50 (µg/ml) in TZM-bl [27]: > 25 µg/mL; ID50/IC50 in TZM-bl [30]: > 25 µg/mL; ID50/IC50 in TZM-bl [31]: > 5 µg/mL
5 | VRC03 (antibody) | – | – | – | – | – | – | – | – | – | – | – | – | 0.014 | – | 0.005 | – | 0.003 | 0.003 | < 0.002 | 0.003 | –
6 | VRC04 (antibody) | – | – | – | – | – | – | – | – | – | – | – | – | 0.18 | – | 0.05 | – | 0.02 | 0.01 | < 0.002 | 0.013 | –
